Here are results for 1 molecule from CN117321082A (APOCOR LTD, dated 2023).

One may read the IC50 as the concentration that inhibits the measured activity by half. Usually EC50 stands for the concentration giving half of the maximal effect. A higher EC50 goes with lower potency in that assay.

In experiment [1] the target is T1, 全长人KLRG1 (full-length human KLRG1 on stably transfected CHOK1 cells) (human, UniProt Q96E93 1-195).
T1 construct: whole, on cells; the cell assays used full-length protein; also called hKLRG1; CHOK1-hKLRG1
T1 sequence (looked up): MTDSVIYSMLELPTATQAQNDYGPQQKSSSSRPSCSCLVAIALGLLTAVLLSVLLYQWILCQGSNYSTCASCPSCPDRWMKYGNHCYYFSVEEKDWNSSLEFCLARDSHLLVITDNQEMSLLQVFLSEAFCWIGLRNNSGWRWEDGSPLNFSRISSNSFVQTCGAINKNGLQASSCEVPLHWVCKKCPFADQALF
In words: FACS competition on CHOK1-hKLRG1 cells; competitor 0.3 uM human E-cadherin-ECD-FC-biotin (Example 7).

The target in experiment [2] is T1, 全长人KLRG1 (full-length human KLRG1 on …). In words: FACS on CHOK1 cells expressing full-length human KLRG1, detected with anti-human IgG-Alexa 488.
Experiment [3] shares this target. As to the kind of experiment: FACS competition on CHOK1-hKLRG1 cells; competitor 0.3 uM human E-cadherin-ECD-FC-biotin, detected with streptavidin-Alexa 488.

B1: PA015 (antibody, human IgG1, kappa, V domains shown)
VH: QVTLRESGPALVKPTQTLTLTCTVSGFSLSTFGMGVGWIRQPPGKALEWLAHIWWDDDKWYELALKSRLTISKDTSKNQVVLTITNMDPVDTATYYCARVIYYGSRSAYYSMDYWGQGTTVTVSS
VL: DVVMTQTPLSLSVTPGQPASISCKSSQSIVHSNAHTYLEWYLQKPGQSPQLLIYKVSNRFSGVPDRFSGSGSGTDFTLKISRVEAEDVGVYYCFQGSHVPVTFGQGTKLEIKR
notes: also called PA015抗体; 抗KLRG1抗体
As for B1, the concentration for half-maximal inhibition (IC50) in experiment [1] came to 5.3 nM; in experiment [3], 8.05 nM. Besides, a half-maximal response in experiment [2] (EC50) required 1.33 nM.
